# According to publication PMC7612745 (Nature, 2019):
# Where no end group is shown, it is not given here.
# T1: Thermus thermophilus multidrug resistance proteins A and B (TmrAB), wild type heterodimer (Thermus thermophilus, UniProt Q72J05;Q72J04)
# T1 sequence 1: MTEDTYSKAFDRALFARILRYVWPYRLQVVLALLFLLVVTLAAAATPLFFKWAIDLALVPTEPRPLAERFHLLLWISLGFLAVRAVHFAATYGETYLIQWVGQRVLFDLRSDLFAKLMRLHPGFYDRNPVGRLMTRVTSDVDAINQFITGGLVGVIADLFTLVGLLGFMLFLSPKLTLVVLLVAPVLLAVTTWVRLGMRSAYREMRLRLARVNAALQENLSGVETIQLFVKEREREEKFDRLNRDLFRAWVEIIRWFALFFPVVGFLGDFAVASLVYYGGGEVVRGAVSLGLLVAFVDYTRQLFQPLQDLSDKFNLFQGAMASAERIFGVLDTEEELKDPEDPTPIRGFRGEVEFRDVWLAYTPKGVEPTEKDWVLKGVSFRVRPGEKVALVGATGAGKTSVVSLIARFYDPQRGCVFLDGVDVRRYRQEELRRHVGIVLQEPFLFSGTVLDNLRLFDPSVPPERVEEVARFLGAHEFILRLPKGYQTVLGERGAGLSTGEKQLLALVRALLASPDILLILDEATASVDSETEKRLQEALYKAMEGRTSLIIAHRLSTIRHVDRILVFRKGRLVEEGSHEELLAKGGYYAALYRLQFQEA
# T1 sequence 2: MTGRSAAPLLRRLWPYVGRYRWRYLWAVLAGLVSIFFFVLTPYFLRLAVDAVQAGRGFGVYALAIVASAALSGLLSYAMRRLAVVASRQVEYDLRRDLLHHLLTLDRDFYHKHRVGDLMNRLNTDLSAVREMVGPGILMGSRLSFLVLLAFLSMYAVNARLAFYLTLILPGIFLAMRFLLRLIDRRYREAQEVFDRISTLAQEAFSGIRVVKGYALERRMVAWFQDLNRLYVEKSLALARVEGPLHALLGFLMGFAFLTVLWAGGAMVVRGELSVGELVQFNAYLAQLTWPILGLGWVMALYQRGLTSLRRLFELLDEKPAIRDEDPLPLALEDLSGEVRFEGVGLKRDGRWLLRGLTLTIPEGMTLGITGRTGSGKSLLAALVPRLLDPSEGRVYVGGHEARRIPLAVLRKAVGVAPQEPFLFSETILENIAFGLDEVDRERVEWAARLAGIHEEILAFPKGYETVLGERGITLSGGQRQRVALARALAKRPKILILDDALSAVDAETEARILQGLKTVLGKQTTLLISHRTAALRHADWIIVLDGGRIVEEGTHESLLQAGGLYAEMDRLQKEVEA
# Columns and labels:
# [1] = biological target: isolated nucleotide-binding domain of TmrB (NBD of TmrB) (Thermus thermophilus HB27, UniProt Q72J04); experiment: SEC
# [2] = biological target: T1, Thermus thermophilus multidrug …; experiment: fluorescence polarisation
Binder,binding result [1],binding result [2]
"Nb9F10, TmrAB-specific nanobody (alpaca) (VHH) VHH: QLQLVESGGGLVQPGDSLRLSCAVSGSALDYNAIGWFRQAPGKEREGVACISKITGNTAYADSVKGRFTISRDNAKNTVHLQMNSLKPEDTAVYYCATVTAVLLPGRCVPGKYWGQGTPVTVSS",binds,
RRYC(fluorescein)KSTEL [fluorescent peptide RRY(C^Fluorescein)KSTEL (C4F)],,binds
